The target in assay [1] is T1, human complement C2 (human, UniProt P06681 21-752).
T1 construct: Recombinant full-length human C2 with C-terminal 8x His tag, purified from Expi293F supernatant; also called human C2; huC2
T1 sequence: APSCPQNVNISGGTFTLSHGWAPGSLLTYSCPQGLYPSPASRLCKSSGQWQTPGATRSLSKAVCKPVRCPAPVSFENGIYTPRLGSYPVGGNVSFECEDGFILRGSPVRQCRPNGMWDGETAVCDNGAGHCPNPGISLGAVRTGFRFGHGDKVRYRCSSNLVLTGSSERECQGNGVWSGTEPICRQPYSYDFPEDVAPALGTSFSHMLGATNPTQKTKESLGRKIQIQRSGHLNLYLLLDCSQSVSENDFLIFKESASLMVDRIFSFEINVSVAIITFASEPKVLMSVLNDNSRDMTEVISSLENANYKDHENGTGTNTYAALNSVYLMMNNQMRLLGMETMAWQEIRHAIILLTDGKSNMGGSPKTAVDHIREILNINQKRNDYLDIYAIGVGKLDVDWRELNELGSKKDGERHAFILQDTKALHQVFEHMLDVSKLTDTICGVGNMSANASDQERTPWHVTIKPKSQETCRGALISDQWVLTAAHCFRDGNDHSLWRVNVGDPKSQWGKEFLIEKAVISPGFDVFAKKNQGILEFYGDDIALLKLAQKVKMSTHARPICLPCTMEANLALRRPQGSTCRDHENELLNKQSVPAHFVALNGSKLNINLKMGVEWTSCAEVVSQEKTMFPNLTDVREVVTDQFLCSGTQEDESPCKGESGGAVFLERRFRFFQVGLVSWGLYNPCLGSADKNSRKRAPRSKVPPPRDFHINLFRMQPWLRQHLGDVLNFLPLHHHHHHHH
Description: SPR, mAb captured, huC2 analyte, neutral pH; pH 7.

Assay [2] concerns the target T1, human complement C2. Nature of the assay: SPR, mAb captured, huC2 analyte, pH 6. (SPR reads the build-up and loss of mass on a sensor chip optically.)
Assay [3] concerns the target T2, mouse C2 (mouse, UniProt P21180 19-760, limits assumed).
T2 sequence (looked up): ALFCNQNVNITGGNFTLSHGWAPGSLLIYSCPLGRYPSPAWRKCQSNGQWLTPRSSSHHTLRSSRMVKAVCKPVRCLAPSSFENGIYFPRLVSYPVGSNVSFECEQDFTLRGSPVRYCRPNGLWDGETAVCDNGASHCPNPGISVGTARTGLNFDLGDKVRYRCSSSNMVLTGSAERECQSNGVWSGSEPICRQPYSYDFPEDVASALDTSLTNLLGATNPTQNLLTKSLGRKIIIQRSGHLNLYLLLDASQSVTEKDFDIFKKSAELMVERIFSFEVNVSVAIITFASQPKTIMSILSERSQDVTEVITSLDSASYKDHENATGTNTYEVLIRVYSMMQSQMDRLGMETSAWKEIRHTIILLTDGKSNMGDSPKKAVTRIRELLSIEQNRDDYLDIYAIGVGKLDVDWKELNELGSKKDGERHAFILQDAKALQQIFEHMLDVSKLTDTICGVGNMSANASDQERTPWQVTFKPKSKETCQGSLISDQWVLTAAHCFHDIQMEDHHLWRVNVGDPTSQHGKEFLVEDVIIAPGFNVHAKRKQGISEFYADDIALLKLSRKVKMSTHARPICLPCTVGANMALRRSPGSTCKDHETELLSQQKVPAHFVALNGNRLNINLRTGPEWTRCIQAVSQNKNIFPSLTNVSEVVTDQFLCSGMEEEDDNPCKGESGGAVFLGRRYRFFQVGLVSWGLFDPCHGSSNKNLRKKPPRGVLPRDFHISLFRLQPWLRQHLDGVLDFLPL
Description: SPR, mouse C2, pH 7.3; VWB = very weak binding, KD not determined.

Assay [4] addresses T3, cynomolgus monkey C2 (cynomolgus monkey, UniProt G8F3W0 21-752).
T3 sequence: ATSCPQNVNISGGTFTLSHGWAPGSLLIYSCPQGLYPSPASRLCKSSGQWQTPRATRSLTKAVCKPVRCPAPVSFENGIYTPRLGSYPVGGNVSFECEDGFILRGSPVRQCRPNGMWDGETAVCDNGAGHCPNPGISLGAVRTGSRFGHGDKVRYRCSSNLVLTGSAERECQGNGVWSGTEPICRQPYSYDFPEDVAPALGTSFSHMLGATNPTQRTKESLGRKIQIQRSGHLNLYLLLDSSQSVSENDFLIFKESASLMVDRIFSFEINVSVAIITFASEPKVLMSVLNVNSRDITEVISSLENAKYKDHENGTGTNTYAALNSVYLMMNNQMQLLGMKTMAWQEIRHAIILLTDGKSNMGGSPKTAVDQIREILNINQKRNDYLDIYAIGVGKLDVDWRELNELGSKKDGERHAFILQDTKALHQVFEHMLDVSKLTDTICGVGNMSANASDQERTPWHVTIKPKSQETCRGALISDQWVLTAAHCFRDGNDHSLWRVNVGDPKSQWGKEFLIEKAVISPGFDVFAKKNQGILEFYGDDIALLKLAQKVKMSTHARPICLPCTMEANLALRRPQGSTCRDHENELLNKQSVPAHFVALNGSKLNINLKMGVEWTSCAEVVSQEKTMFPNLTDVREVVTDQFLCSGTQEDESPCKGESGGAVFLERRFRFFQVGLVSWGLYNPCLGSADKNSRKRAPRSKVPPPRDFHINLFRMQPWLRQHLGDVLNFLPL
Description: cell-based or functional assay.

The target of assay [5] is T3, cynomolgus monkey C2. Description: SPR, mAb captured, cyno C2 analyte, pH 7.3.
Description: (§1) Surface plasmon resonance (SPR, Biacore) was used for all binding affinity analyses. In brief, goat anti-human IgG was directly immobilised onto the carboxymethyl dextran surface of CM5 sensorchips to approximately 12,000 RU using standard NHS/EDC chemistry at pH 5. The immobilised antibody surface was pre-conditioned with ten injections of polyclonal human IgG (Privigen 60 s) prepared at 1 μg/mL. Ligands (anti-C2 mAbs) were captured at the beginning of each cycle as described below. An adjacent spot or flow cell in which only Polyclonal IgG was capture was used as a reference surface. The goat anti-human IgG Fc antibody surface was regenerate in 100 mM H3PO4, injected for 45 seconds at the end of each cycle. Experiments were performed at 37° C. and the flow rate of each experiment was kept constant at 30 μL/min.
(§2) In addition to human C2, the pH dependent anti-C2 antibodies were also tested for their ability to bind to C2 from other mammalian species using the SPR methods described above in order to identify suitable surrogate species for in vivo testing. The antibodies were tested for binding at neutral pH against C2 from cynomolgus monkeys, mice, dogs, rabbits, rats, pigs, and sheep.
Assay [6] concerns the target T1, human complement C2. Nature of the assay: SPR, mAb captured, C2 analyte, MHAs buffer, pH 6.0, steady state.
Description: as §1
(§3) This buffer contains ammonium sulfate instead of sodium chloride.
The target of assay [7] is T1, human complement C2. Description: SPR, mAb captured, C2 analyte, MHAs buffer, pH 5.8, steady state.
Description: as §1, §3
Assay [8] deals with T1, human complement C2. Nature of the assay: SPR, mAb captured, C2 analyte, MHAs buffer, pH 7.3.
In assay [9] the target is T1, human complement C2. Description: SPR, mAb captured, C2 analyte, HBS-EP, pH 7.3.
Description: as §1
(§4) The pH dependent anti-C2 antibodies and their germlined versions were tested for their affinity to C2 at pH 7.3 (neutral pH) and pH 6.0 (early endosome pH) using the SPR methods described above in HBS-EP buffer.
Assay [10] has as its target T1, human complement C2. Nature of the assay: cell-based or functional assay.
Assay [11] has as its target T1, human complement C2. Description: cell-based or functional assay. The source holds these as a separate data set.
In assay [12] the target is T3, cynomolgus monkey C2. Description: cell-based or functional assay. The source holds these as a separate data set.
Assay [13] has as its target T3, cynomolgus monkey C2. Description: SPR, mAb captured, cyno C2 analyte, pH 6.0.
Description: as §1, §2
In assay [14] the target is T1, human complement C2. Description: SPR, mAb captured, C2 analyte, HBS-EP, pH 6.0.
Description: as §1, §4
In assay [15] the target is T2, mouse C2. Description: SPR, mAb captured, mouse C2 analyte, pH 7.3.
Description: as §1, §2

We go through six molecules from patent US20220332804A1 (CSL INNOVATION, published 2022).

Positions count from the first letter of the chain named.

B1: RF16-226 YEY (antibody, human IgG4 S228P, lambda)
heavy: EVQLVQSGAEVKKPGESLKISCKGSGYSFTSYWIGWVRQMPGKGLEWMGIIYPGDSDTRYSPSFQGQVTISADKSISTAYLQWSSLKASDTAMYYCARRFSYSSGWDMWGQGTLVTVSSASTKGPSVFPLAPCSRSTSESTAALGCLVKDYFPEPVTVSWNSGALTSGVHTFPAVLQSSGLYSLSSVVTVPSSSLGTKTYTCNVDHKPSNTKVDKRVESKYGPPCPPCPAPEFLGGPSVFLFPPKPKDTLYISRTPEVTCVVVDVSQEDPEVQFNWYVDGVEVHEAKTKPREEQFNSTYRVVSVLTVLHQDWLNGKEYKCKVSNKGLPSSIEKTISKAKGQPREPQVYTLPPSQEEMTKNQVSLTCLVKGFYPSDIAVEWESNGQPENNYKTTPPVLDSDGSFFLYSRLTVDKSRWQEGNVFSCSVMHEALHYHYTQKSLSLSLGK
light: SYELTQPPSVSVSPGQTARITCSGDALTSKYVAWYQQKSGLAPLLVIYEDTRRPSGIPAKFSGSSSGSVATLTISGAHGDDEADYYCYSTDASGHQRVFGGGTKLTVLSQPKAAPSVTLFPPSSEELQANKATLVCLISDFYPGAVTVAWKADGSPVKAGVETTKPSKQSNNKYAASSYLSLTPEQWKSHRSYSCQVTHEGSTVEKTVAPTECS
One may read the Kd as the concentration at which binding is half-saturated. With B1, the Kd with human complement C2 [1] was roughly 9 nM; with human complement C2 [2] it was roughly 80 nM.

B2: RF16-226 YTE (antibody, human IgG4 S228P, lambda)
heavy: B1 heavy with S253T, T255E, E285N, Y433N
light: B1 light
For B2, the figures for the Kd with human complement C2 [1] and with human complement C2 [2] were roughly 9 nM and roughly 80 nM, respectively.

B3: RF16-226 YPY (antibody, human IgG4 S228P, lambda)
heavy: B1 heavy with E285N, V307P
light: B1 light
As for B3, the Kd in the assay with human complement C2 [1] was roughly 9 nM; with human complement C2 [2], roughly 80 nM.

B4: RF16-226G (antibody)
heavy: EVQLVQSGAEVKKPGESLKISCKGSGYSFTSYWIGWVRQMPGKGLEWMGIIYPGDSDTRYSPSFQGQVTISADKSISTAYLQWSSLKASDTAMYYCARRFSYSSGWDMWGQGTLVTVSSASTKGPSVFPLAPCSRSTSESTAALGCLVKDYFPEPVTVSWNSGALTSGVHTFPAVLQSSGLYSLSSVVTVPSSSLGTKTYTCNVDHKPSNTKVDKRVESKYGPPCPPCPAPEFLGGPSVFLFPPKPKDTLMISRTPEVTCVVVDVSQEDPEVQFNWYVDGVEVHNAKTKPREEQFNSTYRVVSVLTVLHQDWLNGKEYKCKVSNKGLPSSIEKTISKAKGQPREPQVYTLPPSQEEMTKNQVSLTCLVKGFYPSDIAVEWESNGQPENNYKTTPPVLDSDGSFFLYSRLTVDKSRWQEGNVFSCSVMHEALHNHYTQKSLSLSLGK
light: SYELTQPPSVSVSPGQTARITCSGDALTSKYVAWYQQKSGQAPVLVIYEDTRRPSGIPERFSGSSSGTMATLTISGAQVEDEADYYCYSTDASGHQRVFGGGTKLTVLGQPKAAPSVTLFPPSSEELQANKATLVCLISDFYPGAVTVAWKADSSPVKAGVETTTPSKQSNNKYAASSYLSLTPEQWKSHRSYSCQVTHEGSTVEKTVAPTECS
As to B4, the binding result with mouse C2 [3] is “binds”. Moreover, the “IC50, inhibition of cynomolgus classical complement pathway (Wieslab assay)” value with cynomolgus monkey C2 [4] is 8.24 nM. The “IC50, inhibition of cynomolgus lectin complement pathway (Wieslab assay)” value with cynomolgus monkey C2 [4] turned out to be 66.5 nM. The Kd stood at 4.7 nM in the assay with cynomolgus monkey C2 [5]; 1900 nM with human complement C2 [6]; 4060 nM in the assay with human complement C2 [7]; 45.6 nM in the assay with human complement C2 [8]; 10 nM in the assay with human complement C2 [9]; 114 nM with cynomolgus monkey C2 [13]. The molecule further gave a Kd with human complement C2 [14] of 128 nM. In addition, the “IC50, inhibition of human classical complement pathway (Wieslab assay)” value with human complement C2 [10] amounted to 5.58 nM. The “IC50, inhibition of human lectin complement pathway (Wieslab assay)” value with human complement C2 [10] was found to be 3.25 nM. For the same molecule, the “IC50, inhibition of human classical pathway (hemolysis assay)” value in the assay with human complement C2 [11] stood at 230 nM. For the same molecule, in the assay with cynomolgus monkey C2 [12], the “IC50, inhibition of cyno classical pathway (hemolysis assay), mean of three experiments” value was found to be 176 nM.

B5: RF16-242G (antibody, V domains shown)
VH: EVQLVQSGAEVKKPGESLKISCKGSGYSFTSYWIGWVRQMPGKGLEWMGIIYPGDSDTRYSPSFQGQVTISADKSISTAYLQWSSLKASDTAMYYCARRGHYGDYFDYWGQGTLVTVSS
VL: SYELTQPPSVSVSPGQTARITCSGDALPKKYAYWYQQKSGQAPVLVIYEDRRRPSGIPERFSGSSSGTMATLTISGAQVEDEADYYCYSRDRAGNQRVFGGGTQLTVLG
notes: Germlined version of RF16-242
Turning to B5, in the assay with mouse C2 [3], the binding result is given as “binds”. Besides, the “IC50, inhibition of cynomolgus classical complement pathway (Wieslab assay)” value with cynomolgus monkey C2 [4] is 19.3 nM. Further, the “IC50, inhibition of cynomolgus lectin complement pathway (Wieslab assay)” value with cynomolgus monkey C2 [4] amounted to 275 nM. Also, the Kd was 4.4 nM in the assay with cynomolgus monkey C2 [5]; 12000 nM with human complement C2 [6]; 47000 nM with human complement C2 [7]; 558 nM in the assay with human complement C2 [8]; 6.7 nM with human complement C2 [9]; 132 nM in the assay with cynomolgus monkey C2 [13]. The same molecule came in with a dissociation constant (Kd) in the assay with human complement C2 [14] of 14 nM. Further, the “IC50, inhibition of human classical complement pathway (Wieslab assay)” value in the assay with human complement C2 [10] was found to be 26.3 nM. Also, the “IC50, inhibition of human lectin complement pathway (Wieslab assay)” value in the assay with human complement C2 [10] was 3.19 nM. Moreover, the “IC50, inhibition of human classical pathway (hemolysis assay)” value with human complement C2 [11] came to 80.3 nM. Further, the “IC50, inhibition of cyno classical pathway (hemolysis assay)” value with cynomolgus monkey C2 [12] was 302 nM.

B6: RF16-191 (antibody, V domains shown)
VH: EVQLLESGGGLVQPGGSLRLSCAASGFTFSKYWMGWVRQATGKGLEWVSSIYSSGGWTYYADSVKGRFTISRDNSKNTLYLQMNSLRAEDTAVYYCARRPRSFSGSYYRAFDIWGQGTMVTVSS
VL: DIQMTQSPSSLSASVGDRVTITCRASQSITDYLNWYQQRPGKAPKLLIYAASSLQSGVPSRFSGSGSGTDFTLTISGLQPEDFATYYCQQSYSSSITFGQGTRLDLKR
notes: Human antibody from a phage display library
With B6, in the assay with cynomolgus monkey C2 [4], the “IC50, inhibition of cynomolgus classical complement pathway (Wieslab assay)” value is 11 nM. The “IC50, inhibition of cynomolgus lectin complement pathway (Wieslab assay)” value with cynomolgus monkey C2 [4] was found to be 49.2 nM. The Kd in the assay with cynomolgus monkey C2 [5] came to 27.4 nM; with human complement C2 [9], 10.9 nM; with mouse C2 [15], 303 nM; with cynomolgus monkey C2 [13] it was 71.3 nM; with human complement C2 [14], 13 nM. In the assay with human complement C2 [10], the “IC50, inhibition of human classical complement pathway (Wieslab assay)” value stood at 1.09 nM. Besides, in the assay with human complement C2 [10], the “IC50, inhibition of human lectin complement pathway (Wieslab assay)” value worked out at 0.857 nM. The “IC50, inhibition of human classical pathway (hemolysis assay)” value with human complement C2 [11] was 29.4 nM. Also, in the assay with cynomolgus monkey C2 [12], the “IC50, inhibition of cyno classical pathway (hemolysis assay)” value turned out to be 188 nM.
